Earlier results on one substance are cited in PMC8476072.

What is called Kd is the equilibrium constant for the complex coming apart.

This data set has as its target CheZ (Escherichia coli) (UniProt P0A9H9).
Chain of UniProt P0A9H9 (P0A9H9 whole entry): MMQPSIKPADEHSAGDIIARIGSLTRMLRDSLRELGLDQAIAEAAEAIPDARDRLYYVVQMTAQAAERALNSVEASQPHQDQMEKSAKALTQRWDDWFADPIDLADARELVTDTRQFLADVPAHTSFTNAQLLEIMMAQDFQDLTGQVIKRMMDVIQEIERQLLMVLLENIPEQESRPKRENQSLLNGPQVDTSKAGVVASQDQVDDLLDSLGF

In the case of CheY (from UniProt P0AE67), the Kd was 8 µM.
